{"source": "patent US20240335558A1", "about": "“ISOLATED POLYPEPTIDE AND USE THEREOF” (GLYCO-THERAPY BIOTECHNOLOGY CO., LTD., priority 2021, published 2024)", "molecules": {"B1": {"name": "HpFT-2HR: H. pylori α-1,3-fucosyltransferase variant: catalytically active domain, two heptapeptide repeat sequences and C-terminus fused His tag (protein)", "chain": "MFQPLLDAFIESASIEKMVSKSPPPPLKIAVANWWGDEEIKEFKKSVLYFILSQRYAITLHQNPNESSDLVFSNPLGAARKILSYQNTKRVFYTGENESPNFNLFDYAIGFDELDFNDRYLRMPLYYAHLHYEAELVNDTTAPYKLKDNSLYALKKPSHHFKENHPNLCAVVNDESDLLKRGFASFVASNANAPMRNAFYDALNSIEPVTGGGSVRNTLGYKVGNKSEFLSQYKFNLCFENSQGYGYVTEKILDAYFSHTIPIYWGSPSVAKDFNPKSFVNVHDFNNFDEAIDYIKYLHTHPNAYLDMLYENPLNTLDGKAYFYQDLSFKKILDFFKTILENDTIYHNNPFIFYRDLHEPLISIDDLRVNYDDLRVNYLEHHHHHH", "modifications": "Catalytically active domain of Helicobacter pylori Alpha-(1,3)-fucosyltransferase (GenBank No.AAD07710.1) with 2 heptapeptide repeats and a C-terminal His tag"}}, "format_in_all_cases": "biochemical", "key": {"[1]": {"test_system": "Trastuzumab-(Fucα1,6)(GalNAzβ1,4)GlcNAc", "assay": "Transfer of GDP-FAmP4Biotin to Trastuzumab-(Fucα1,6)(GalNAzβ1,4)GlcNAc by different HpFTs", "conditions": "donor GDP-FAmP4Biotin 1 mM, enzyme 0.5 mg/mL, 30° C., 3 h; FIG. 3"}, "Trastuzumab-G2F [2]": {"test_system": "Trastuzumab-G2F", "assay": "HpFT-2HR and HpFT-4HR transferring GDP-FAmP4Biotin or GDP-FAzP4Biotin to Trastuzumab-G2F", "conditions": "enzyme 0.5 mg/mL, 30° C., 6 h, FIG. 6(A)", "protocol": "(§1) To 40 mM Tris-HCl (pH 7.5) buffer were added Trastuzumab-G2F (2 mg/mL final), GDP-FAmP4Biotin (1 mM final), MgCl2 (20 mM final), and different HpFT enzymes (HpFT-4HR, HpFT-4HR(M4), HpFT-4HR(M7), HpFT-6HR, HpFT-3HR, HpFT-2HR, HpFT-1HR, or HpFT-0HR) (0.5 mg/mL final) in sequence, and the resulting mixed solution was allowed to react at 30° C. for 3 h. Three parallels were set up for each group. After the reaction time point was reached, to the reaction solution was added 10 mM LacNAc (N-acetyl-D-lactosamine), and the reaction was terminated by a desalting column (Zeba™ Spin Desalting Columns/2 ml/40K, Thermo Fisher Scientific), and finally mass spectrometry was carried out and % of conversion was calculated. % of conversion=(MAR0 peak intensity*0+MAR1peak intensity*1+MAR2 peak intensity*2+MAR3 peak intensity*3+MAR4 peak intensity*4)/4* (MAR0 peak intensity+MAR1 peak intensity+MAR2 peak intensity+MAR3 peak intensity+MAR4 peak intensity)*100%.\nTo 40 mM Tris-HCl (pH 7.5) buffer were added Trastuzumab-G2F (2 mg/mL final), GDP-FAmP4Biotin or GDP-FAzP4Biotin (1 mM final), MgCl2 (20 mM final), and HpFT-2HR or HpFT-4HR (0.5 mg/mL final) in sequence, and the resulting mixed solution was allowed to react at 30° C. for 6 h. Three parallels were set up for each group. After the reaction time point was reached, to the reaction solution was added 10 mM LacNAc, and the reaction was terminated by a desalting column (Zeba™ Spin Desalting Columns/2 ml/40K, Thermo Fisher Scientific), and finally mass spectrometry was carried out and % of conversion was calculated. % of conversion was calculated according to Example 17."}, "Trastuzumab-G2F [3]": {"test_system": "Trastuzumab-G2F", "assay": "HpFT-2HR and HpFT-4HR transferring GDP-FAmSucMMAE to Trastuzumab-G2F", "conditions": "donor 1 mM, enzyme 0.5 mg/mL, 30° C., 3 h and 6 h; FIG. 7A", "protocol": "as §1\nTo 40 mM Tris-HCl (pH 7.5) buffer were added Trastuzumab-G2F or Durvalumab-G2F (2 mg/mL final), GDP-FAmSucMMAE (1 mM final), MgCl2 (20 mM final), and HpFT-2HR or HpFT-4HR (0.5 mg/mL final) in sequence, and the resulting mixed solution was allowed to react at 30° C. for 3 h and 6 h. Three parallels were set up for each group. […]"}}, "data": [{"molecule": "B1", "values": [{"measurement": "catalytic activity among the HpFT variants", "setting": "[1]", "value": "relatively high catalytic activity"}, {"measurement": "catalytic activity as compared with HpFT-4HR (% of conversion)", "setting": "[1]", "value": "significantly improved catalytic activity"}, {"measurement": "activity in catalyzing the transfer of GDP-FAmP4Biotin relative to transfer of GDP-FAzP4Biotin", "setting": "Trastuzumab-G2F [2]; donor 1 mM", "value": "significantly higher"}, {"measurement": "activity in catalyzing the transfer of GDP-FAmP4Biotin, as compared with HpFT-4HR", "setting": "Trastuzumab-G2F [2]; donor GDP-FAmP4Biotin 1 mM", "value": "significantly improved activity"}, {"measurement": "activity in catalyzing the transfer of GDP-FAzP4Biotin, as compared with HpFT-4HR", "setting": "Trastuzumab-G2F [2]; donor GDP-FAzP4Biotin 1 mM", "value": "significantly improved activity"}, {"measurement": "activity in catalyzing the transfer of GDP-FAmSucMMAE, as compared with HpFT-4HR", "setting": "Trastuzumab-G2F [3]", "value": "significantly improved activity"}]}]}
